Substitutions are numbered along the chain they refer to. Names and notes keep the numbering of the source. Values joined by “and” are separate entries in the source; they are usually repeats but may differ in a detail not shown here. Equal entries are not always repeated.
T1: dimer-interface mutant gp43(exo-) DNA polymerase;gp45 sliding clamp (wt) (T4 bacteriophage;T4 bacteriophage, UniProt P04415;P04525 1-898;1-228, D219A;D75R;Q430E;K432E|)
T1 sequence 1: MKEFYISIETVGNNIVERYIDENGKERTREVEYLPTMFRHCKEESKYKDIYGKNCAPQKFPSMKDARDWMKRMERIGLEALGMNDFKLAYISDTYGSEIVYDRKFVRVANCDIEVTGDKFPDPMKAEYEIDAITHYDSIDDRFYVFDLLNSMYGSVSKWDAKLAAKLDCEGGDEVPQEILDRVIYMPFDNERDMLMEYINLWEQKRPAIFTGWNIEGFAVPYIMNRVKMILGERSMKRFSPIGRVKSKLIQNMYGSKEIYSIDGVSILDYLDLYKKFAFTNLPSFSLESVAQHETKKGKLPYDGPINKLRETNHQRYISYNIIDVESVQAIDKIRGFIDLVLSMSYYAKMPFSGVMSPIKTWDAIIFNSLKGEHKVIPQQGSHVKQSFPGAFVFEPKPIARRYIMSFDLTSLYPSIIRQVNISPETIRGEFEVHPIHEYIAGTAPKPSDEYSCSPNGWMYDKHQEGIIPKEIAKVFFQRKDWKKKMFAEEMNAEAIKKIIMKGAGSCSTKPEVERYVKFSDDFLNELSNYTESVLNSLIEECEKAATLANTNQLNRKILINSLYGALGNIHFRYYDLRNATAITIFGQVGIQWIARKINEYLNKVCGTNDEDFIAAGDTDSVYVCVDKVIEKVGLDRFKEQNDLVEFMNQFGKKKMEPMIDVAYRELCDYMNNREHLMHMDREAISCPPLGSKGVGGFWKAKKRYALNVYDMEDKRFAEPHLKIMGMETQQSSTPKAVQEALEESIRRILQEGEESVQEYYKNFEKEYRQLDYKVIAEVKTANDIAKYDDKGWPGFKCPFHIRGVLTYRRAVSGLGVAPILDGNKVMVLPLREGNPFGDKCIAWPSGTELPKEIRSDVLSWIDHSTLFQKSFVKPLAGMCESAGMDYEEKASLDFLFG
T1 sequence 2: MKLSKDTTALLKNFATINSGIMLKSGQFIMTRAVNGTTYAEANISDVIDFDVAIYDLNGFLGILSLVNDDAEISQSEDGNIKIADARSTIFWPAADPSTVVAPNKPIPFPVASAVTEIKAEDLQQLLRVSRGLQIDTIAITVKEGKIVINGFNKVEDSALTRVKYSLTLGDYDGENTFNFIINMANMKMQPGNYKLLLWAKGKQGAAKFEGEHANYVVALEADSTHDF

T2: gp43(exo-) DNA polymerase;gp45 sliding clamp (wt) (T4 bacteriophage;T4 bacteriophage, UniProt P04415;P04525 1-898;1-228, D219A|)
T2 sequence 1: T1 sequence 1 with R75D, E430Q, E432K
T2 sequence 2: T1 sequence 2

B1: P/T DNA (25-nt primer / 38-nt template) (dsDNA)
DNA 1: CTGCACGAATTAAGCAATTCGTAATCATGGTCATAGCT
DNA 2: AGCTATGACCATGATTACGAATTGC
modifications: primer 3'-terminal dideoxycytidine (ddC)
B2: T4 bacteriophage gp43(exo-) exonuclease-deficient DNA polymerase (D219A) (enzyme, bacteriophage T4)
chain: T1 sequence 1 with R75D, E430Q, E432K
notes: DNA polymerase gp43 of bacteriophage T4 with the exonuclease-deficient mutation D219A; also called gp43 polymerase; T4 polymerase; source: E. coli BL21(DE3), purified (chitin resin with intein-mediated cleavage, heparin)
B3: dimer-interface mutant gp43(exo-) polymerase (D75R, Q430E, K432E in gp43(exo-) D219A) (enzyme, bacteriophage T4)
chain: T1 sequence 1
notes: DNA polymerase gp43 of bacteriophage T4 with D219A (exo-) and the three dimer-interface mutations D75R, Q430E and K432E; PDB 9EA3 holds this mutant; the other three entries hold its parent m1; also called dimer-interface mutant polymerase; mutant polymerase; source: E. coli BL21(DE3), purified (chitin resin with intein-mediated cleavage, heparin)
B4: T4 bacteriophage gp45 sliding clamp (natural protein, bacteriophage T4)
chain: T1 sequence 2
notes: sliding clamp gp45 of bacteriophage T4, wild type, homotrimeric ring; also called wt-gp45 clamp; gp45 clamp; source: E. coli BL21(DE3), pET26b, purified (hydroxyapatite, anion exchange)

Assays:
[1] = target: T1, dimer-interface mutant gp43(exo-) DNA …; assay: cryo-EM; ddTTP; one-polymerase holoenzyme, 4.0 A; cryo-EM assembly: 1.2 polymerase : 2 clamp : 1 DNA (molar) with ddTTP; proteins purified in HEPES pH 7.8 buffers; assembly salt and temperature not given in material; details: protein: recombinant;recombinant; tags: self-cleaving intein chitin tag, removed;; copies: 1;3; primer-template; 13 nt 5' template overhang, 25 bp duplex
[2] = target: T2, gp43(exo-) DNA polymerase;gp45 sliding …; assay: cryo-EM; ddTTP; two-polymerase complex state 1; DNA at right polymerase, primer end outside both active sites; cryo-EM assembly: 1.2 polymerase : 2 clamp : 1 DNA (molar) with ddTTP; proteins purified in HEPES pH 7.8 buffers; assembly salt and temperature not given in material; details: protein: recombinant;recombinant; chain copies: 2;3; primer-template; 13 nt 5' template overhang, 25 bp duplex
[3] = target: B4; assay: cryo-EM structure; 10 μM gp45 clamp mixed with 5 μM primer/template DNA (20 mM HEPES pH 7.5, 150 mM KOAc, 10 mM MgCl2, 0.5 mM ddTTP, 2 mM DTT; 10 min, 30°C), then 6 μM gp43 polymerase added (10 min room temperature, 1 h on ice); no clamp loader; details: both partners purified
[4] = target: the molecule itself; assay: as above
[5] = target: B2; assay: as above; details: both partners purified
[6] = target: B3; assay: as above; details: both partners purified

B1: binds [1]; binds [2].

With B2 the “stoichiometry N” value [3] was 1 polymerase per clamp ring and 2 polymerases per clamp ring and the “stoichiometry N” value [4] was 2.

For B3, the “stoichiometry N” value [3] was 1 polymerase per clamp ring.

B4: binds [5]; binds [6].
